# Literature values, collected in PMC10530976.
# Target: Kv1.2 (UniProt P16389)
# UniProt P16389, sequence (P16389 whole entry): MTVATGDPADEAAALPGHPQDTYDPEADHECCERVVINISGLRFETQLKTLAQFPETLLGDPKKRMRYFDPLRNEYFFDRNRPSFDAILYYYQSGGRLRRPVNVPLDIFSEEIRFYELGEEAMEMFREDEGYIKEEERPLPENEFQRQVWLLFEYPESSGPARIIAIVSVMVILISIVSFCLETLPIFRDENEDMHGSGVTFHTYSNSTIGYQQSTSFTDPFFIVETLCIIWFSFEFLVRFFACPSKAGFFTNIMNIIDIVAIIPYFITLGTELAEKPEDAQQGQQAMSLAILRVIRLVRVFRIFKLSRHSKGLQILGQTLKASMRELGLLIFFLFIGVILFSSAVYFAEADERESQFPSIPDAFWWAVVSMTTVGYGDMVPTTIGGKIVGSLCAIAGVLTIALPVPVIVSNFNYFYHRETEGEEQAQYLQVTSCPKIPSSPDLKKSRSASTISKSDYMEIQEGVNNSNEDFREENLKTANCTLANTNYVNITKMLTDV
substance,measurement,value
OSK2 (from UniProt P83244),Kd,5.97 nM
